Test results from patent US8841421B2, “S100A9 interaction screening method” (Active Biotech, AB, priority 2007, dated 2014).

Key:
[1] = target: T1, S100A9 binding to immobilized human TLR4/MD-2 complex (Homo sapiens, UniProt P06702); assay: Biacore competition assay: displacement of S100A9 binding to immobilized TLR4/MD-2; conditions: sigmoidal dose-response (variable slope) fit
T1 construct: made in house; host or cells: E. coli
T1 sequence (P06702 1-114): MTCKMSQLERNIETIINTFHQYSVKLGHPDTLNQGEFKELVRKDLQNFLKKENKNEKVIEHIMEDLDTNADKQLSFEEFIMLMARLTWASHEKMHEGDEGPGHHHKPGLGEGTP
Description: Sensograms from top to bottom represent: S100A9 without and with 7.8125, 15.625, 31.25, 62.5, 125, 250, 500 and 1000 μM compound A as competitor. In (B), binding data is plotted as an inhibition curve. […] Arrows in (A) indicate start of the association phase (1), i.e. injection of S100A9±competitor, and dissociation phase (2), where running buffer is pumped over the surface. Injection time, flow rate and regeneration conditions were as in FIG. 1. HBS-P containing 1 mM CaCl2 and 10 μM ZnCl2 (Robinson et al. 2002) was used as running and sample buffer.
Binding analysis was performed using the “surface plasmon resonance” (SPR) technology with a Biacore 3000™ system. This technology allows analysis of an interaction between proteins and small molecules in a real-time and label-free manner. A protein or low-molecular weight compound is injected over a surface (a CM5 sensor chip) with a covalently coupled ligand and the signal produced, expressed as resonance units (RU), is directly proportional to the number and mass of the molecule interacting with the ligand on the surface. […]
(§1) Recombinant S100A9, expressed as the full-length sequence of native protein in E. coli was obtained using a four-step purification protocol. […] Buffer was changed to HBS-P using the Fast Protein Desalting Spin Columns and concentration determined in the BCA protein assay from Pierce with bovine albumin as standard. […]

[2] = target: T2, S100A9 binding to immobilized RAGE (Homo sapiens, UniProt P06702); assay: Biacore competition assay: displacement of S100A9 binding to immobilized RAGE; conditions: for IC50, displacement of S100A9 binding to RAGE: 200 nM S100A9, log-logit plot, linear regression
T2 construct: made in house; host or cells: E. coli
T2 sequence (P06702 1-114): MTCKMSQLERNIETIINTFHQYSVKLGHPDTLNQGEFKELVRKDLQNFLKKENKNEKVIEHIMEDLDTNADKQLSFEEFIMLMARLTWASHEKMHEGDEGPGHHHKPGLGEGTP
Description: Sensorgrams from top to bottom represent: S100A9 without and with 15.625, 31.25, 62.5, 125, 250, 500 and 1000 μM compound A as competitor and from sample buffer without S100A9 and competitor. In (B), binding data is plotted as an inhibition curve (♦) and the response for S100A9 in the absence of competitor (dotted line). In (C), binding data is plotted after log-logit transformation. […] Arrows in (A) indicate start of the association phase (1), i.e. injection of S100A9±competitor, and dissociation phase (2), where running buffer is pumped over the surface. Injection time, flow rate and regeneration conditions were as in FIG. 1.
Binding analysis was performed using the “surface plasmon resonance” (SPR) technology with a Biacore 3000™ system. This technology allows analysis of an interaction between proteins and small molecules in a real-time and label-free manner. A protein or low-molecular weight compound is injected over a surface (a CM5 sensor chip) with a covalently coupled ligand and the signal produced, expressed as resonance units (RU), is directly proportional to the number and mass of the molecule interacting with the ligand on the surface. Immobilization, regeneration scouting, surface performance tests and binding studies were conducted basically according to the instructions by the manufacturer. Kinetic evaluation of binding data was carried using the BIAevaluation Software Version 3.2 (Biacore AB). Optimization of conditions for immobilization and binding analysis is carried out for each interaction to be studied. […]
Recombinant human RAGE was obtained from R&D Systems (cat. No. 1145-RG) as a fusion protein of the extracellular domain of RAGE, comprising a.a. […] The chimeric protein was expressed in the mouse myleoma cell line NSO as a disulfide-linked homo-dimeric protein with a calculated molecular mass of 61 kDa. […]
Recombinant S100A9, expressed as the full-length sequence of native protein in E. coli was obtained using a four-step purification protocol. […]

[3] = target: T3, human S100A9 (Homo sapiens, UniProt P06702); assay: Biacore competition assay: S100A9 binding to immobilized amino-linked Compound A; conditions: sigmoidal dose-response (variable slope) fit
T3 construct: made in house; host or cells: E. coli
T3 sequence (P06702 1-114): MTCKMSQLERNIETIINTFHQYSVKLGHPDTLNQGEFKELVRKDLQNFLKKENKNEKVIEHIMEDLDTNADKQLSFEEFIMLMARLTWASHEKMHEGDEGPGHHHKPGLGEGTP
Description: The anti-S100A9 mAb 43/8 ability to block the binding of human S100A9 to amino-linked Compound A was measured by BIACORE™ direct binding assay. The assay was performed by coating amino-linked Compound A on a CM5 chip using standard amine coupling. S100A9 at 100 nM was injected over immobilized Compound A in the absence or presence of mAb 43/8 for 3 min at a flow rate of 30 μl/min in sample buffer (HBS-P buffer containing 1 mM Ca^2+ and […]) (1; association phase), followed by injection of sample buffer (2; dissociation phase).
Responses at late association phase, obtained after injection of 100 nM S100A9, pre-incubated for at least 1 h at room temperature ±12.5-500 nM monoclonal anti-S100A9 antibody, over immobilized Compound A were plotted versus concentration of anti-S100A9 antibody.
Samples were injected for 3 min at 30 μl/min in HBS-P buffer over amine coupled RAGE,TLR4/MD-2 and Compound A. Binding +/− competitor was calculated as response at lateassociation phase or by fit of sensorgrams to a 1:1 Langmuir model. ICso values were calculated by fitting data to a sigmoidal dose-response (variable slope) model in Graph-Pad Prism.

[4] = target: T4, immobilized RAGE (Homo sapiens, UniProt Q15109); assay: Binding of S100 proteins to immobilized RAGE (Biacore); conditions: 200 nM protein
T4 construct: the extracellular domain of RAGE, comprising a.a; 1-344; purchased R&D Systems 1145-RG; host or cells: mouse myeloma cell line NS0
Description: Responses were obtained as Req values after fit of data to a 1:1 binding model or as the signal at late association phase (t˜235 s). Experimental conditions were as in FIG. 1. Signals were not corrected for mass contribution.
In vivo, S100A9 usually forms hetero-dimeric complexes with S100A8.
(§2) Binding analysis was performed using the “surface plasmon resonance” (SPR) technology with a Biacore 3000™ system. This technology allows analysis of an interaction between proteins and small molecules in a real-time and label-free manner. A protein or low-molecular weight compound is injected over a surface (a CM5 sensor chip) with a covalently coupled ligand and the signal produced, expressed as resonance units (RU), is directly proportional to the number and mass of the molecule interacting with the ligand on the surface. Immobilization, regeneration scouting, surface performance tests and binding studies were conducted basically according to the instructions by the manufacturer. Kinetic evaluation of binding data was carried using the BIAevaluation Software Version 3.2 (Biacore AB). Optimization of conditions for immobilization and binding analysis is carried out for each interaction to be studied. A biosensor analysis cycle consists of: (i) injection of S100A9 over the RAGE surface for 3 min (association phase) or (i) injection of S100A9 over the TLR4/MD-2 surfaces, in the absence or presence of 100 ng/mL LPS, for 3 min (association phase); (ii) injection of running buffer for 2.5 min (dissociation phase); (iii) injection of a 30 s pulse of 10 mM glycine-HCl, pH 2.0-2.125 (regeneration phase); and (iv) injection of running buffer for 2 min (stabilization after regeneration) at a flow rate of 30 μl/min.
Recombinant human RAGE was obtained from R&D Systems (cat. No. 1145-RG) as a fusion protein of the extracellular domain of RAGE, comprising a.a. 1-344, and the Fc region of human IgG1 via a peptide linker. The chimeric protein was expressed in the mouse myleoma cell line NSO as a disulfide-linked homo-dimeric protein with a calculated molecular mass of 61 kDa. Prior to covalent coupling to the sensor chip, buffer was changed to a standard Biacore buffer (10 mM Hepes, 0.15 M NaCl, pH 7.4, containing 0.005% v/v Surfactant P20; HBS-P) using Fast Protein Desalting Micro-Spin Columns (Pierce). RAGE was diluted in an immobilization buffer shown to give sufficient pre-concentration and then covalently coupled using the “Aim at immobilization level” function in the Biacore Wizard to obtain various coupling densities. Activity of immobilized RAGE was tested by injecting a specific anti-human RAGE monoclonal antibody over the surface. Due to extensive glycosylation of RAGE relative to that of the Fc domain and a higher mass of the latter, it was also assumed that chimeric RAGE/Fc will be coupled predominantly via the Fc domain and result in a semi-oriented coupling to the sensor chip. HBS-P, with a final concentration of 1 mM CaCl2 and 10 μM ZnCl2, was used as sample and running buffer throughout the study. For regeneration of the surface after each cycle, a pulse of 10 mM glycine-HCl, pH 2.125, was used. To determine optimal zinc concentration for binding of S100A9 protein to RAGE, the interaction was allowed to take place at a fixed calcium concentration (1 mM) and with the zinc concentration titrated from zero to ten μM.

[5] = target: T5, human TLR4/MD-2 (Homo sapiens, UniProt O00206+Q9Y6Y9); assay: Biacore direct binding of S100A9 to amine-coupled TLR4/MD-2; conditions: 1:1 Langmuir binding model
T5 construct: human TLR4 (Glu 24-Lys 631), and 10× histidines; human MD-2 (Glu 17-ASN 160), and 10× histidines; human CD33 signal peptide (Met 1-Ala 16) (N); purchased R&D Systems 3146-TN/CF; host or cells: mouse myeloma cell line NS0
Description: The TOLL-like receptor 4 was immobilized on the sensor chip. Binding to S100A9 was detected. […] Sensorgrams from bottom to top represent injection of sample buffer in the absence of S100A9, 100 and 200 nM S100A9 after subtraction of the signal in the reference flow cell. Injection time was 3 min at a flow rate of 30 μL/min and regeneration was performed with a 30 μl pulse of 3 mM EDTA in HBS-P buffer (HBS-EP) for 60 s. Arrows indicate injection of sample (1; association phase), running buffer (2; dissociation phase) and regeneration solution (3). HBS-P containing 1 mM CaCl2 and 10 μM ZnCl2 (Robinson et al. 2002) was used as running and sample buffer. An apparent dissociation constant of […], on- and off-rates of 3.9×10^4 l/Ms and 3.5×10^−4 l/s, and maximal binding at 1.8×10^3 RU were calculated after fitting data to a 1:1 Langmuir binding model (Chi2 6.8).
as §2
Recombinant human TLR4/MD-2 was obtained from R&D Systems (cat. no. 3146-TN/CF) as a non-covalently associated protein of the respective extracellular domains. […]
as §1

T4 sequence (Q15109 23-344): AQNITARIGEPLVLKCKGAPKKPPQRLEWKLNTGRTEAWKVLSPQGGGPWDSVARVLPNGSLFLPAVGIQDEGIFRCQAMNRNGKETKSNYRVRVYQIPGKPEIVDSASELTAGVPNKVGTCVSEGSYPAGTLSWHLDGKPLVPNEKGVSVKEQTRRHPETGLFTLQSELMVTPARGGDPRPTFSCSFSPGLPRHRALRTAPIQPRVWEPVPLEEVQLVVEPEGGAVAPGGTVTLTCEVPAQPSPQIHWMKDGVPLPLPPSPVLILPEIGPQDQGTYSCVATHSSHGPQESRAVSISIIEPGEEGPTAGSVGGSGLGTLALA
T5 sequence (O00206 24-631): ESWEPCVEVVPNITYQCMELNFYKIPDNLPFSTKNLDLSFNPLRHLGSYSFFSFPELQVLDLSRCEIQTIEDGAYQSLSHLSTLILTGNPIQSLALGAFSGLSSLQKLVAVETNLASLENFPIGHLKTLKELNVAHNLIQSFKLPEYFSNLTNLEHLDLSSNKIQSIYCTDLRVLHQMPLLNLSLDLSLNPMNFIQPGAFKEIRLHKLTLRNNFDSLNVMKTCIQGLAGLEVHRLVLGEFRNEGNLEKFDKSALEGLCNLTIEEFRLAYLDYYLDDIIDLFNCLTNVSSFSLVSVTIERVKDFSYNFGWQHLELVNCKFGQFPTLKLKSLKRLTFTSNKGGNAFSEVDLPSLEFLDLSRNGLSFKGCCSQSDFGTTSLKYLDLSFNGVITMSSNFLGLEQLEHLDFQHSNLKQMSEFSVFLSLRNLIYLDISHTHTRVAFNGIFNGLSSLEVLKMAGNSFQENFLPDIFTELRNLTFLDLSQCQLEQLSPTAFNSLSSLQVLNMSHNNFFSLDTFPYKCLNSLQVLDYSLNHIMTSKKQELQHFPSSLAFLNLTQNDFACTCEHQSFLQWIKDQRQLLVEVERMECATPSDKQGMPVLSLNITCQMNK
T5 sequence (Q9Y6Y9 17-160): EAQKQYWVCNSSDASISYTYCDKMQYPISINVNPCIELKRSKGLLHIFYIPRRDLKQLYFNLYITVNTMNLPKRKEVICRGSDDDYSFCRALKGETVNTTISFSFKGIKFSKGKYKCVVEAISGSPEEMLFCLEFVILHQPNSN

COc1ccc(C2CNC(=O)C2)cc1OC1CCCC1 (racemic) [Rolipram, (+/−)-4-(3-cyclopentyloxy-4-methoxyphenyl)-2-pyrrolidone]
IC50 [1]: 458 µM
IC50 ([2]; sigmoidal dose-response (variable slope) fit): 399 µM
IC50 [3]: 873 µM

S100A1: S100 protein, putative RAGE ligand [Compound S100A1]
binding to RAGE (in words) [4]: weak or no binding

S100A8/9 hetero-dimer: hetero-dimeric complex of S100A8 and S100A9
binding to RAGE (in words) [4]: significantly lower binding

S100A9: recombinant S100A9, full-length sequence of native protein expressed in E. coli; SEQ ID NO: 1 [Compound S100A9]
binding to RAGE relative to next group of RAGE binders (AnxII, S100A12, S100A8/9) [4]: more than 10 fold
maximal binding [5]: 1.8×10^3 RU
off-rate [5]: 0.00035 L/s
on-rate [5]: 3.9×10^4 l/Ms
Kd ([5]; read-out: apparent dissociation constant): 0.086 µM

S100B: S100 protein, putative RAGE ligand [Compound S100B]
binding to RAGE (in words) [4]: weak or no binding

heparan sulfate
IC50, displacement of S100A9 binding to RAGE [2]: 0.0257 µg/mL

heparin
IC50, displacement of S100A9 binding to RAGE [2]: 0.0404 µg/mL

B1: S100A12: S100 protein, putative RAGE ligand; purified from human granulocytes (protein)
chain: TKLEEHLEGIVNIFHQYSVRKGHFDTLSKGELKQLLTKELANTIKNIKDKAVIDEIFQGLDANQDEQVDFQEFISLVAIALKAAHYHTHKE
binding to RAGE (in words) [4]: weak or no binding

B2: S100P: S100 protein, putative RAGE ligand (protein, UniProt P25815 1-95, looked up)
Protein S100-P: MTELETAMGMIIDVFSRYSGSEGSTQTLTKGELKVLMEKELPGFLQSGKDKDAVDKLLKDLDANGDAQVDFSEFIVFVAAITSACHKYFEKAGLK
binding to RAGE (in words) [4]: weak or no binding
